The source of these data is the supplement of paper PMC5998384.

Series [1] deals with HeLa Kyoto. In words: solubility change mitosis vs G1/S (difference of NP-40 vs SDS log2 ratios) (log2 ratio difference); higher = more soluble in mitosis.
The test system of series [2] is HeLa Kyoto. In words: melting temperature (median over replicates), in situ; higher = more thermally stable.
Series [3] relates to HeLa Kyoto. As to the kind of experiment: solubility in G1/S (NP-40 vs SDS abundance) (log2 ratio); higher = more soluble. To be noted: cell cycle stage: G1/S.
The subject of series [4] is HeLa Kyoto. In words: thermal stability score vs G1/S (z-score of summed log2 fold changes over temperatures); higher = more thermally stable than in G1/S.
Setting [5] is: cell cycle stage: early G1 (4.5 h after nocodazole release).
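Throughout, for melting temperature (median over replicates), in situ: HeLa Kyoto cells synchronized by double thymidine or nocodazole block, proteins quantified by TMT10plex mass spectrometry, three independent biological replicates.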
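Throughout, for solubility change mitosis vs G1/S (difference of NP-40 vs SDS log2 ratios): synchronized HeLa Kyoto cells (double thymidine block for G1/S, nocodazole release for mitosis), protein amounts in NP-40 versus SDS lysates quantified by mass spectrometry, three biological replicates.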
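Throughout, for solubility in G1/S (NP-40 vs SDS abundance): HeLa Kyoto cells arrested at G1/S by double thymidine block, proteins quantified by TMT10plex mass spectrometry in mild NP-40 versus SDS extracts, three biological replicates.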
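Throughout, for thermal stability score vs G1/S (z-score of summed log2 fold changes over temperatures): synchronized HeLa Kyoto cells, proteins quantified by TMT10plex mass spectrometry, three biological replicates, mitosis taken 0.5 h after nocodazole release, G1/S directly after double thymidine block.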

As for “MLGSLVLRRKALAPRLLLRLLRSPTLRGHGGASGRNVTTGSLGEPQWLRVATGGRPGTSPALFSGRGAATGGRQGGRFDTKCLAAATWGRLPGPEETLPGQDSWNGVPSRAGLGMCALAAALVVHCYSKSPSNKDAALLEAARANNMQEVSRLLSEGADVNAKHRLGWTALMVAAINRNNSVVQVLLAAGADPNLGDDFSSVYKTAKEQGIHSLEDGGQDGASRHITNQWTSALEFRRWLGLPAGVLITREDDFNNRLNNRASFKGCTALHYAVLADDYRTVKELLDGGANPLQRNEMGHTPLDYAREGEVMKLLRTSEAKYQEKQRKREAEERRRFPLEQRLKEHIIGQESAIATVGAAIRRKENGWYDEEHPLVFLFLGSSGIGKTELAKQTAKYMHKDAKKGFIRLDMSEFQERHEVAKFIGSPPGYVGHEEGGQLTKKLKQCPNAVVLFDEVDKAHPDVLTIMLQLFDEGRLTDGKGKTIDCKDAIFIMTSNVASDEIAQHALQLRQEALEMSRNRIAENLGDVQISDKITISKNFKENVIRPILKAHFRRDEFLGRINEIVYFLPFCHSELIQLVNKELNFWAKRAKQRHNITLLWDREVADVLVDGYNVHYGARSIKHEVERRVVNQLAAAYEQDLLPGGCTLRITVEDSDKQLLKSPELPSPQAEKRLPKLRLEIIDKDSKTRRLDIRAPLHPEKVCNTI [CLPB]”, the “solubility change mitosis (log2)” value in the series with HeLa Kyoto [1] is -0.0294. The melting temperature in the series on HeLa Kyoto [2] (cell cycle stage: G1/S) was determined as 52 °C; in the series with HeLa Kyoto [2] (cell cycle stage: mitosis), 51.8 °C. Moreover, the “solubility in G1/S (log2)” value in the series on HeLa Kyoto [3] was determined as 0.0358. Also, the thermal stability score with HeLa Kyoto [4] (setting [5]) came to 0.555; in the series on HeLa Kyoto [4] (cell cycle stage: mitosis), 0.467.
As for “MLHFNRCHHLKKITQKCFSSIHVKTDKHAQRFLSRTFALAELRKSWYSTHSLVGDKNIILMGPPGAGKTTVGRIIGQKLGCCVIDVDDDILEKTWNMSVSEKLQDVGNEQFLEEEGKAVLNFSASGSVISLTGSNPMHDASMWHLKKNGIIVYLDVPLLDLICRLKLMKTDRIVGQNSGTSMKDLLKFRRQYYKKWYDARVFCESGASPEEVADKVLNAIKRYQDVDSETFISTRHVWPEDCEQKVSAKFFSEAVIEGLASDGGLFVPAKEFPKLSCGEWKSLVGATYVERAQILLERCIHPADIPAARLGEMIETAYGENFACSKIAPVRHLSGNQFILELFHGPTGSFKDLSLQLMPHIFAHCIPPSCNYMILVATSGDTGSAVLNGFSRLNKNDKQRIAVVAFFPENGVSDFQKAQIIGSQRENGWAVGVESDFDFCQTAIKRIFNDSDFTGFLTVEYGTILSSANSINWGRLLPQVVYHASAYLDLVSQGFISFGSPVDVCIPTGNFGNILAAVYAKMMGIPIRKFICASNQNHVLTDFIKTGHYDLRERKLAQTFSPSIDILKSSNLERHLHLMANKDGQLMTELFNRLESQHHFQIEKALVEKLQQDFVADWCSEGECLAAINSTYNTSGYILDPHTAVAKVVADRVQDKTCPVIISSTAHYSKFAPAIMQALKIKEINETSSSQLYLLGSYNALPPLHEALLERTKQQEKMEYQVCAADMNVLKSHVEQLVQNQFI [THNSL1]”, the “solubility change mitosis (log2)” value with HeLa Kyoto [1] is -0.0759. Besides, the melting temperature with HeLa Kyoto [2] (cell cycle stage: G1/S) was 52.5 °C; in the series on HeLa Kyoto [2] (cell cycle stage: mitosis) it was 52.7 °C. In the series on HeLa Kyoto [3], the “solubility in G1/S (log2)” value is -0.0605. Besides, the thermal stability score in the series on HeLa Kyoto [4] (setting [5]) was 0.435; with HeLa Kyoto [4] (cell cycle stage: mitosis), -0.697.
For the sequence “MLHLSAAPPAPPPEVTATARPCLCSVGRRGDGGKMAAAGALERSFVELSGAERERPRHFREFTVCSIGTANAVAGAVKYSESAGGFYYVESGKLFSVTRNRFIHWKTSGDTLELMEESLDINLLNNAIRLKFQNCSVLPGGVYVSETQNRVIILMLTNQTVHRLLLPHPSRMYRSELVVDSQMQSIFTDIGKVDFTDPCNYQLIPAVPGISPNSTASTAWLSSDGEALFALPCASGGIFVLKLPPYDIPGMVSVVELKQSSVMQRLLTGWMPTAIRGDQSPSDRPLSLAVHCVEHDAFIFALCQDHKLRMWSYKEQMCLMVADMLEYVPVKKDLRLTAGTGHKLRLAYSPTMGLYLGIYMHAPKRGQFCIFQLVSTESNRYSLDHISSLFTSQETLIDFALTSTDIWALWHDAENQTVVKYINFEHNVAGQWNPVFMQPLPEEEIVIRDDQDPREMYLQSLFTPGQFTNEALCKALQIFCRGTERNLDLSWSELKKEVTLAVENELQGSVTEYEFSQEEFRNLQQEFWCKFYACCLQYQEALSHPLALHLNPHTNMVCLLKKGYLSFLIPSSLVDHLYLLPYENLLTEDETTISDDVDIARDVICLIKCLRLIEESVTVDMSVIMEMSCYNLQSPEKAAEQILEDMITIDVENVMEDICSKLQEIRNPIHAIGLLIREMDYETEVEMEKGFNPAQPLNIRMNLTQLYGSNTAGYIVCRGVHKIASTRFLICRDLLILQQLLMRLGDAVIWGTGQLFQAQQDLLHRTAPLLLSYYLIKWGSECLATDVPLDTLESNLQHLSVLELTDSGALMANRFVSSPQTIVELFFQEVARKHIISHLFSQPKAPLSQTGLNWPEMITAITSYLLQLLWPSNPGCLFLECLMGNCQYVQLQDYIQLLHPWCQVNVGSCRFMLGRCYLVTGEGQKALECFCQAASEVGKEEFLDRLIRSEDGEIVSTPRLQYYDKVLRLLDVIGLPELVIQLATSAITEAGDDWKSQATLRTCIFKHHLDLGHNSQAYEALTQIPDSSRQLDCLRQLVVVLCERSQLQDLVEFPYVNLHNEVVGIIESRARAVDLMTHNYYELLYAFHIYRHNYRKAGTVMFEYGMRLGREVRTLRGLEKQGNCYLAALNCLRLIRPEYAWIVQPVSGAVYDRPGASPKRNHDGECTAAPTNRQIEILELEDLEKECSLARIRLTLAQHDPSAVAVAGSSSAEEMVTLLVQAGLFDTAISLCQTFKLPLTPVFEGLAFKCIKLQFGGEAAQAEAWAWLAANQLSSVITTKESSATDEAWRLLSTYLERYKVQNNLYHHCVINKLLSHGVPLPNWLINSYKKVDAAELLRLYLNYDLLEEAVDLVSEYVDAVLGKGHQYFGIEFPLSATAPMVWLPYSSIDQLLQALGENSANSHNIALSQKILDKLEDYQQKVDKATRDLLYRRTL [NUP160]”, the “solubility change mitosis (log2)” value with HeLa Kyoto [1] was 0.135. The values for the melting temperature in the series with HeLa Kyoto [2] (cell cycle stage: G1/S) and in the series on HeLa Kyoto [2] (cell cycle stage: mitosis) were 52.1 °C and 49.4 °C, respectively. In the series with HeLa Kyoto [3], the “solubility in G1/S (log2)” value is -0.58. Besides, the figures for the thermal stability score with HeLa Kyoto [4] (setting [5]) and with HeLa Kyoto [4] (cell cycle stage: mitosis) were -3.22 and -3.66, respectively.
